Drawing on the supplement of paper PMC12042874, this text covers amyloid nucleation score for 140 substances.

A short description of this data set: amyloid nucleation score (Sup35N fusion, yeast selection) (log enrichment); library NNK1; higher = more nucleation; inactive = no reads after selection. In short, it runs like this: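 Three technical output replicates were used for random libraries. Psi-negative yeast expressing peptides of 20 random codons fused to Sup35N were induced with 100 μM copper sulfate for 24 hours and grown 7 days at 30°C on medium lacking adenine and uracil, and input and output plasmid inserts were Illumina-sequenced, excluding sequences with under 100 input reads. The nucleation score is the DiMSum log enrichment of output over input reads, centred on the mode score of non-aggregating sequences.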

± gives the uncertainty stated by the source.

In the case of IIKFSNDWDVDKFSFGSVLE, the amyloid nucleation score was found to be 0.596 ± 0.63. GFPLQSKDTARNIGTQFLEW returned an amyloid nucleation score of -0.003 ± 0.4. For QWCNIVGSMIVDITQELML the value was 1.75 ± 0.25. On to TLQLICYY, for which the amyloid nucleation score was 3.29 ± 0.14.

HKNEYSGFKRSKLLYRARMR: the amyloid nucleation score is 0.964 ± 0.68. For WDSLVLGKLYKLIFDQASPV the value was -1.31 ± 1.3; for YPNVRSTYGDHSLLSNVAKG, 0.132 ± 0.66. In turn, VYFVTFWSYVNFHV came in with an amyloid nucleation score of -0.208 ± 0.28. Turning to NLKADRFDHGSPEVVSLSFI, the amyloid nucleation score was -0.027 ± 0.98. The substance NLLWCIVGTKPWKVLTTVNY registered an amyloid nucleation score of -0.28 ± 0.38.

Turning to YCIASSVGWFVFVIWPLRKS, the amyloid nucleation score came out at 0.065 ± 0.56. Then HLILGLL, with -0.54 ± 0.47; and LNYLYDIMLSSLTSQTDSMS, with -0.689 ± 0.66; and NTMGSNWYMVVNSWFVRRCS, with -1.01 ± 1.2. Then YGINNLPI, with -1.23 ± 0.71. Then CVYVSMLH, with -0.483 ± 0.85.

In turn, NVMQKNLFGSCIILLSWSLS displayed an amyloid nucleation score of 0.078 ± 0.26. For HFFVVNQSYPNHFHLLGI the value was 5.05 ± 0.094; for IGTYGHRMELLIGSRCKSRT, -0.15 ± 0.22; for NGYFYTTYASDVPRRYVPYL, 0.387 ± 0.33.

In the case of RVRTPHNWTWGITCTWVFKF, the amyloid nucleation score came out at 0.326 ± 0.51. For EFLNSNLLNTYMKLFLIITH the value was 3.36 ± 0.21; for LLVNGLMGMWPIFII, -1.03 ± 2.4; for LYPLMEGDRKKL, 0.981 ± 0.47. MHRGDVMRSSWNHDGVGTVR came in with an amyloid nucleation score of 0.048 ± 1.2. Then VKHFLSDMRLFIGPKIFMRC, with 4.49 ± 0.062; and ELLCLNL, with -0.83 ± 0.73; and FCVRTEYSGGELAARSLDFA, with 0.498 ± 0.97.

YVDVSSS had an amyloid nucleation score of 0.834 ± 0.61.

In the case of LIYAREDGEALWEAIRPTEK, the amyloid nucleation score is -0.047 ± 0.48. For SPGMWGMGVDNSKSGRWALR the value was 1.89 ± 0.28; for TYNCILNSCSSSYTKVLV, 0.703 ± 0.24.

With AFRYDRVWVGQQLFGQECRP, the amyloid nucleation score was found to be 0.054 ± 0.46. For GNNFFIIVAVLTQKNSAVRV the value was 1.19 ± 0.22; for GTSRPVDWGLRRLS, 1.37 ± 0.62; for QGVGSDVTSIYTV, -0.884 ± 2.4.

Turning to LDEVHESSIRSGNY, the amyloid nucleation score was found to be 3.12 ± 0.17. In turn, MVQNVWDVRYDEAAMTLVRH had an amyloid nucleation score of 0.461 ± 0.61. For QFSAIIMSLSLLWSFMCAWE the value was -0.217 ± 0.55.

Take TFIMSQSWFMQWPRTMAAMT: the amyloid nucleation score is -0.346 ± 0.45.

For IYRAHYAIYSAF, the amyloid nucleation score is -0.026 ± 0.64. For GPCGTLSI the value was -0.541 ± 0.84; for RCSTPRCSPL, -0.237 ± 0.62; for VFHAAVM, -0.192 ± 0.93.

Take TYEPKGRLPCWCSAQSMGCL: the amyloid nucleation score is -0.096 ± 0.34. Then NNKDISYGREAGGYEVERKD, with -0.907 ± 1.2; and NSSKAMKKQVHLLFFRK, with 0.699 ± 0.42. Then YASGLILIKSPFV, with 0.276 ± 0.34.

In the case of RIDDSIFLDFWM, the amyloid nucleation score is -0.214 ± 0.4. LDMVANYLYSGSALILYCHL gave an amyloid nucleation score of -1.17 ± 2.1. Then FTWWHIRGCGCCVACEGHRS, with 0.05 ± 0.65; and LNLTMVGIYINDFL, with 4.69 ± 0.099; and WDHLRGLTCNVFIMIVKSFF, with 1.4 ± 0.36. For AHGRHDLRWCLRSRDSMWRA the value was 1.2 ± 0.53; for NVYFLPIMA, -1.06 ± 0.54. SFVWLR had an amyloid nucleation score of 2.67 ± 0.37.

Consider IKRLFWDWLGDRDLGRMSTP, for which the amyloid nucleation score entry is “inactive”. Substance IGFRPGRNSVWLMSRDLNFW yielded an amyloid nucleation score of -1.11 ± 1.4. Then KVYYYKPLIRNPTSFLITIL, with 0.817 ± 0.47. VSYMQSVVHCGPKARCKWRC: the amyloid nucleation score worked out at 0.964 ± 0.67.

As to LTPNVFAL, the amyloid nucleation score is -0.345 ± 0.3.

Substance LVMSTRLQTCCWLNVNVGWV gave an amyloid nucleation score of 6.04 ± 0.069. Then IAGIEGPI, with -0.182 ± 1.3.

As to AFKNAAGMRGMTWISSEVGA, the amyloid nucleation score stood at 0.145 ± 0.42. For VRSWVLVLQSMCGLLSGGYG the value was -0.802 ± 0.96; for DTPWWGSGALVFKLCACSAY, -0.341 ± 0.59. Then LLCICWLALICCLNSELGSQ, with -0.675 ± 1. Then YSYSGVRMVVILNWHGKWWC, with 4.87 ± 0.096; and SARQVSGLTWVM, with 2.52 ± 0.11; and TIAKST, with -0.885 ± 0.86. For RVISPSCKWDQCSPMCS, the amyloid nucleation score is -0.499 ± 1.1. For IRMDSCRTFYLSLSWHIYCS the value was 0.338 ± 0.23; for IRVLVSCVGYPFTCILKVWT, 1.18 ± 0.97.

As to VYCCLNFLAFNFSWV, the amyloid nucleation score worked out at 6.308 ± 0.063. Substance PNVFFFLISMIFSDFLVGSG returned an amyloid nucleation score of 0.192 ± 1.2. For the substance EFIIVRRDGLGAVYSVTNAF, the amyloid nucleation score is 1.08 ± 0.7.

As for AIVYRQKLISQLYFARLLRH, the amyloid nucleation score was determined as 0.063 ± 1.4. Turning to SDVGLGNKKSWGVRAVCLDE, the amyloid nucleation score was found to be 0.452 ± 1.2. For SYWLWTVNTMSLVPFRASCR the value was 1.05 ± 0.36; for RVDQVKSGFDMLYYPHWHQL, 0.532 ± 0.37.

For KFNDDRNGIATLQRHHIAGF, the amyloid nucleation score was -0.969 ± 0.71. As to LVGRRGYFSLVWVPGMSFMR, the amyloid nucleation score turned out to be 0.289 ± 0.45. For CIIMCLRSDPV the value was 0.211 ± 0.3; for NYAAPVSCRGLADEGRSRTD, -0.4 ± 0.49; for SSGDVPGFSPYGKWDFWWTC, -0.151 ± 0.45.

With KKLNSCF, the amyloid nucleation score was found to be 0.533 ± 0.63. Then VPDESDHFSFRVEMLSLKVD, with -0.639 ± 0.45; and RRLNCLILFKVVLLATIFCI, with -1.42 ± 0.58; and HRRLRMRT, with -0.469 ± 0.79.

HCVRI: the amyloid nucleation score turned out to be 1.4 ± 0.6. As for GKCLIMKQRLALKSFFNFQC, the amyloid nucleation score entry is “inactive”. Then GCSLWVGVLCKNCFFDDLIM, with 5.807 ± 0.055. For RFEGERRVVG the value was -0.035 ± 0.3. Then ILVPLNQGEIWRNKIRYWI, with 0.019 ± 0.4. As to NVAPSQSFPSLYCSE, the amyloid nucleation score entry is “inactive”.

VGLVLKIHVYNYFMETAQQS returned an amyloid nucleation score of 6.555 ± 0.053. Then AGVAGL, with -0.661 ± 0.4; and VTSWDMS, with 0.016 ± 0.26; and SASAISTPGGCYDGYLFDSQ, with -0.457 ± 0.61. Then TFSEFAVIDIRYIWGTLFVS, with 0.762 ± 0.38.

SEICLLVSSKSGHDAQSTIS: the amyloid nucleation score is -0.011 ± 1.2. For YQNFPVKLITQKCLCWIDRC the value was 0.216 ± 0.31. AFLMMSTVAPTLWMIMPSYS yielded an amyloid nucleation score of 0.446 ± 0.48. For HNFEFTRLAHLDSSTL the value was 0.248 ± 0.47. PLDHLHLSKWCTSEKDLVV: the amyloid nucleation score worked out at 0.766 ± 0.38. Then NSGFRAASS, with 2.02 ± 0.55; and MRGERVYSLRNNSHQ, with -0.078 ± 0.33.

In the case of MRPVSLYGFIFCCAFQGLWF, the amyloid nucleation score is 4.99 ± 0.07.

Substance CPITWNFLCGIVLIEYYRVV displayed an amyloid nucleation score of 7.04 ± 0.087. As to ICGRNTLCARRRTSRLVGIE, the amyloid nucleation score is 1.1 ± 0.97.

Take VGVWLFCLAYWE: the amyloid nucleation score result is “inactive”.

Consider SSERYLASQPNSSPSPSIPT, for which the amyloid nucleation score is -0.421 ± 1.2. For TYVCDMEHSVYCYYVEAQLY the value was 0.49 ± 0.4; for LRCLYIG, -0.818 ± 0.86. For VFASGAAGTKFWR the value was 0.302 ± 0.27.

PVSSLNYLVDT had an amyloid nucleation score of 0.395 ± 0.62.

Substance SIFLSNILNDTWFLSALSCM registered an amyloid nucleation score of -1.41 ± 0.53. Then VRADHYFYITHIKLKMSRV, with “inactive”. Then AHFVRVDHNGGGLCMLGISR, with -1.21 ± 0.86. For DVIMEGFAMCVWSRVTALLE the value was 0.492 ± 0.85; for SALNSSRGKFICSRRCHGEE, 0.078 ± 0.23. Turning to NSYKCIWMSLGVV, the amyloid nucleation score is -0.897 ± 0.38.

The substance LLCWRYFSCSYFLECVGSTS returned an amyloid nucleation score of -1.14 ± 0.86. Then DRLSAT, with 0.272 ± 1.2.

Substance RSSLVLTFELFRFGMYHQEM returned an amyloid nucleation score of 1.28 ± 0.15. PTLMLAGG yielded an amyloid nucleation score of -0.33 ± 0.46. Then SLAPLHLFERMGGRS, with 0.532 ± 0.86; and VCYVAMLNHTSPMSLASSAR, with “inactive”; and HGCKYAKGASDLYDIMCFCW, with 0.602 ± 0.38. Then LWDLKIAGRLNLEGCRCGLW, with 2.1 ± 0.13; and VRSFGWTEFKCVTFFQEWIS, with -0.029 ± 0.44; and CRSYNYLIVMKDLLPSALKT, with 1.23 ± 0.36. IYARNIRRLTRFPDLLDLVM yielded an amyloid nucleation score of 1.47 ± 0.17. Then IVYRPLAFVAVSCSESGHSV, with 4.56 ± 0.087. Then YAYEIGFVILQFFNNRVFAL, with “inactive”; and VHNPSVNDLYFLVICCVYLF, with 0.484 ± 0.26; and TLFLLVSNVIAEFLFWIVCP, with 0.212 ± 0.3.

NEVPCVRRWSCRGLCARELM came in with an amyloid nucleation score of 0.429 ± 0.88. Then YRCAYFL, with -0.25 ± 0.69; and GHRVAGCFSMSGVG, with 1.25 ± 0.44.
